The binders below were run against ∆14-PrfaH (IncX3 plasmid pHNYX644 …, UniProt A0A0C5EQ24 1-155) (assay: EMSA).

Q: Does TCTGATTCGGGGTCATCCGAGTCGAGAAAACGCCTG (ssDNA) [ss-W10] bind?
A: Result: binds

Q: Does TCTAAATCGGGGTCATCCGAGTCGAGAGAGCGCCTG (ssDNA) [ss-W2] bind?
A: Result: binds

Q: Does TCTGATTCGGGGTCATCCGAGTCGAGAGAGCGCAAA (ssDNA) [ss-W12] bind?
A: Result: binds

Q: Does TCTGATTCGGGGTCATCCGAGTCGAGAGAGAAACTG (ssDNA) [ss-W11] bind?
A: Result: binds

Q: Does AAAGATTCGGGGTCATCCGAGTCGAGAGAGCGCCTG (ssDNA) [ss-W1] bind?
A: Result: binds

Q: Does TCTGATTCGGGGTCATCCGAGTCGAAAGAGCGCCTG (ssDNA) [ss-W9] bind?
A: Result: binds

Reference: article PMC11880322
